The values that follow come from the supplement of paper PMC5998384.

For series [1], the system named is HeLa Kyoto. As to the kind of experiment: melting temperature (median over replicates), in situ; higher = more thermally stable.
The test system of series [2] is HeLa Kyoto. Description: solubility change mitosis vs G1/S (difference of NP-40 vs SDS log2 ratios) (log2 ratio difference); higher = more soluble in mitosis.
Series [3] relates to HeLa Kyoto. As to the kind of experiment: thermal stability score vs G1/S (z-score of summed log2 fold changes over temperatures); higher = more thermally stable than in G1/S.
Series [4] has as its system HeLa Kyoto. Description: solubility in G1/S (NP-40 vs SDS abundance) (log2 ratio); higher = more soluble. The following applies: cell cycle stage: G1/S.
Setting [5] is: cell cycle stage: early G1 (4.5 h after nocodazole release).
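Wherever melting temperature (median over replicates), in situ is given: HeLa Kyoto cells synchronized by double thymidine or nocodazole block, proteins quantified by TMT10plex mass spectrometry, three independent biological replicates.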
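Wherever solubility change mitosis vs G1/S (difference of NP-40 vs SDS log2 ratios) is given: synchronized HeLa Kyoto cells (double thymidine block for G1/S, nocodazole release for mitosis), protein amounts in NP-40 versus SDS lysates quantified by mass spectrometry, three biological replicates.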
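Wherever solubility in G1/S (NP-40 vs SDS abundance) is given: HeLa Kyoto cells arrested at G1/S by double thymidine block, proteins quantified by TMT10plex mass spectrometry in mild NP-40 versus SDS extracts, three biological replicates.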
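Wherever thermal stability score vs G1/S (z-score of summed log2 fold changes over temperatures) is given: synchronized HeLa Kyoto cells, proteins quantified by TMT10plex mass spectrometry, three biological replicates, mitosis taken 0.5 h after nocodazole release, G1/S directly after double thymidine block.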

Regarding “MENMAEEELLPLEKEEVEVAQVQVPTPARDSAGVPAPAPDSALDSAPTPASAPAPAPALAQAPALSPSLASAPEEAKSKRHISIQRQLADLENLAFVTDGNFDSASSLNSDNLDAGNRQACPLCPKEKFRACNSHKLRRHLQNLHWKVSVEFEGYRMCICHLPCRPVKPNIIGEQITSKMGAHYHCIICSATITRRTDMLGHVRRHMNKGETKSSYIAASTAKPPKEILKEADTDVQVCPNYSIPQKTDSYFNPKMKLNRQLIFCTLAALAEERKPLECLDAFGATGIMGLQWAKHLGNAVKVTINDLNENSVTLIQENCHLNKLKVVVDSKEKEKSDDILEEGEKNLGNIKVTKMDANVLMHLRSFDFIHLDPFGTSVNYLDSAFRNIRNLGIVSVTSTDISSLYAKAQHVARRHYGCNIVRTEYYKELAARIVVAAVARAAARCNKGIEVLFAVALEHFVLVVVRVLRGPTSADETAKKIQYLIHCQWCEERIFQKDGNMVEENPYRQLPCNCHGSMPGKTAIELGPLWSSSLFNTGFLKRMLFESLHHGLDDIQTLIKTLIFESECTPQSQFSIHASSNVNKQEENGVFIKTTDDTTTDNYIAQGKRKSNEMITNLGKKQKTDVSTEHPPFYYNIHRHSIKGMNMPKLKKFLCYLSQAGFRVSRTHFDPMGVRTDAPLMQFKSILLKYSTPTYTGGQSESHVQSASEDTVTERVEMSVNDKAEASGCRRW [TRMT1L]”, the melting temperature in series [1] (cell cycle stage: G1/S) is 51.8 °C; in series [1] (cell cycle stage: mitosis), 50.9 °C. Moreover, in series [2], the “solubility change mitosis (log2)” value amounted to 0.324. The thermal stability score is -0.774 in series [3] (setting [5]) and -3 in series [3] (cell cycle stage: mitosis). Besides, the “solubility in G1/S (log2)” value in series [4] was -0.537.
As to “MENQVLTPHVYWAQRHRELYLRVELSDVQNPAISITENVLHFKAQGHGAKGDNVYEFHLEFLDLVKPEPVYKLTQRQVNITVQKKVSQWWERLTKQEKRPLFLAPDFDRWLDESDAEMELRAKEEERLNKLRLESEGSPETLTNLRKGYLFMYNLVQFLGFSWIFVNLTVRFCILGKESFYDTFHTVADMMYFCQMLAVVETINAAIGVTTSPVLPSLIQLLGRNFILFIIFGTMEEMQNKAVVFFVFYLWSAIEIFRYSFYMLTCIDMDWKVLTWLRYTLWIPLYPLGCLAEAVSVIQSIPIFNETGRFSFTLPYPVKIKVRFSFFLQIYLIMIFLGLYINFRHLYKQRRRRYGQKKKKIH [HACD3]”, the melting temperature in series [1] (cell cycle stage: G1/S) stood at 53.8 °C; in series [1] (cell cycle stage: mitosis), 53.9 °C. In addition, in series [2], the “solubility change mitosis (log2)” value was -0.00775. Also, the thermal stability score in series [3] (setting [5]) is -0.451; in series [3] (cell cycle stage: mitosis), -1.3. Also, the “solubility in G1/S (log2)” value in series [4] was -0.3.
The sequence “MENSSAASASSEAGSSRSQEIEELERFIDSYVLEYQVQGLLADKTEGDGESERTQSHISQWTADCSEPLDSSCSFSRGRAPPQQNGSKDNSLDMLGTDIWAANTFDSFSGATWDLQPEKLDFTQFHRKVRHTPKQPLPHIDREGCGKGKLEDGDGINLNDIEKVLPAWQGYHPMPHEVEIAHTKKLFRRRRNDRRRQQRPPGGNKPQQHGDHQPGSAKHNRDHQKSYQGGSAPHPSGRPTHHGYSQNRRWHHGNMKHPPGDKGEAGAHRNAKETMTIENPKLEDTAGDTGHSSLEAPRSPDTLAPVASERLPPQQSGGPEVETKRKDSILPERIGERPKITLLQSSKDRLRRRLKEKDEVAVETTTPQQNKMDKLIEILNSMRNNSSDVDTKLTTFMEEAQNSTNSEEMLGEIVRTIYQKAVSDRSFAFTAAKLCDKMALFMVEGTKFRSLLLNMLQKDFTVREELQQQDVERWLGFITFLCEVFGTMRSSTGEPFRVLVCPIYTCLRELLQSQDVKEDAVLCCSMELQSTGRLLEEQLPEMMTELLASARDKMLCPSESMLTRSLLLEVIELHANSWNPLTPPITQYYNRTIQKLTA [CTIF]” had a melting temperature in series [1] (cell cycle stage: G1/S) of 52.1 °C. In addition, in series [2], the “solubility change mitosis (log2)” value worked out at 0.157. The thermal stability score in series [3] (setting [5]) is -0.292; in series [3] (cell cycle stage: mitosis), 0.109. Further, the “solubility in G1/S (log2)” value in series [4] was 0.0528.
For “MEPAMEPETLEARINRATNPLNKELDWASINGFCEQLNEDFEGPPLATRLLAHKIQSPQEWEAIQALTVLETCMKSCGKRFHDEVGKFRFLNELIKVVSPKYLGSRTSEKVKNKILELLYSWTVGLPEEVKIAEAYQMLKKQGIVKSDPKLPDDTTFPLPPPRPKNVIFEDEEKSKMLARLLKSSHPEDLRAANKLIKEMVQEDQKRMEKISKRVNAIEEVNNNVKLLTEMVMSHSQGGAAAGSSEDLMKELYQRCERMRPTLFRLASDTEDNDEALAEILQANDNLTQVINLYKQLVRGEEVNGDATAGSIPGSTSALLDLSGLDLPPAGTTYPAMPTRPGEQASPEQPSASVSLLDDELMSLGLSDPTPPSGPSLDGTGWNSFQSSDATEPPAPALAQAPSMESRPPAQTSLPASSGLDDLDLLGKTLLQQSLPPESQQVRWEKQQPTPRLTLRDLQNKSSSCSSPSSSATSLLHTVSPEPPRPPQQPVPTELSLASITVPLESIKPSNILPVTVYDQHGFRILFHFARDPLPGRSDVLVVVVSMLSTAPQPIRNIVFQSAVPKVMKVKLQPPSGTELPAFNPIVHPSAITQVLLLANPQKEKVRLRYKLTFTMGDQTYNEMGDVDQFPPPETWGSL [GGA1]”, the melting temperature in series [1] (cell cycle stage: G1/S) and in series [1] (cell cycle stage: mitosis) was 51.6 °C throughout. Besides, the “solubility change mitosis (log2)” value in series [2] is -0.28. The thermal stability score in series [3] (setting [5]) was -0.271; in series [3] (cell cycle stage: mitosis) it was -0.0298. Moreover, the “solubility in G1/S (log2)” value in series [4] is 0.556.
